# Patent US6872808 (CORVAS INTERNATIONAL, dated 2005)
# T1: human Factor XIIa (human, UniProt P00748 20-615)
# T1 sequence: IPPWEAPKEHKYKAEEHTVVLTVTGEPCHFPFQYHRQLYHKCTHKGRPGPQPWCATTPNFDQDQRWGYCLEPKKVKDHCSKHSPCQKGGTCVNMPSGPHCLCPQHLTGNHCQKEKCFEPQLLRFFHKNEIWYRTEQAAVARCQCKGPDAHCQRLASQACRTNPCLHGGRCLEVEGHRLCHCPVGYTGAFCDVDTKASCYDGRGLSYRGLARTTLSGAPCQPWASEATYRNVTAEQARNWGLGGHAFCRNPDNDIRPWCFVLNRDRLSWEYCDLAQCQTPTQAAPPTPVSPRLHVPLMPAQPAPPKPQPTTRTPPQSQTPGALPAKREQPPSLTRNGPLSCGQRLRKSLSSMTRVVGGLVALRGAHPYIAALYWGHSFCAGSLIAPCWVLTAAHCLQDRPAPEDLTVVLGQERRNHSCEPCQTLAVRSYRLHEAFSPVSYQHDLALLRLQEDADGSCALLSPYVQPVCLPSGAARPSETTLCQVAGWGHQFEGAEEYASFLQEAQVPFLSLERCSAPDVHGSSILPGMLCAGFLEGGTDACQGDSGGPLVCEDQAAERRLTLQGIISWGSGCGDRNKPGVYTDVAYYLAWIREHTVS
# B1: recombinant AceNAP4 (other)
# chain: KPNNVMTNACGLNEYFAECGNMKECEHRCNEEENEERDEERITACLIRVCFRPGACVCKDGFYRNRTGSCVEEDDCEYENMEFITFAPEVPICGSNERYSDCGNDKQCERKCNEDDYEKGDEACRSHVCERPGACVCEDGFYRNKKGSCVESDDCEYDNMDFITFAPETSR
# notes: Two NAP domains
# Tests used:
# [1] = biological target: T2, rFVIIa/rTF/PLV complex (human, UniProt P08709 61-466; P13726 33-295); test: rFVIIa/rTF/PLV amidolytic assay (S-2288), no FXa addition; apparent Ki*
# T2 construct: Complex formed in HBSA with CaCl2 on phosphatidyl choline/phosphatidyl serine vesicles; also called fVIIa/TF; FVIIa/TF
# T2 sequence (P08709 61-466 limits assumed, chain 1 of 2): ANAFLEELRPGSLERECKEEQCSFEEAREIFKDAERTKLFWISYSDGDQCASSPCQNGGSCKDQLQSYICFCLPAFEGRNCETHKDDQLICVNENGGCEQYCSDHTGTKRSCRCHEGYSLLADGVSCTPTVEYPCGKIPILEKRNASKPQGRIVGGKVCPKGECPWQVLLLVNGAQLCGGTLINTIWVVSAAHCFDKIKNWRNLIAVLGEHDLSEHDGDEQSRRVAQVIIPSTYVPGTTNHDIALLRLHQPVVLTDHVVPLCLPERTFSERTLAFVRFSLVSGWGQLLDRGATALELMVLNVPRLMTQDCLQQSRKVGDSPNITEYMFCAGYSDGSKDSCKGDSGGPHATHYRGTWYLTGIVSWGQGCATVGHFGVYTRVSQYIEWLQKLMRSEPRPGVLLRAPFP
# T2 sequence (P13726 33-295 limits assumed, chain 2 of 2): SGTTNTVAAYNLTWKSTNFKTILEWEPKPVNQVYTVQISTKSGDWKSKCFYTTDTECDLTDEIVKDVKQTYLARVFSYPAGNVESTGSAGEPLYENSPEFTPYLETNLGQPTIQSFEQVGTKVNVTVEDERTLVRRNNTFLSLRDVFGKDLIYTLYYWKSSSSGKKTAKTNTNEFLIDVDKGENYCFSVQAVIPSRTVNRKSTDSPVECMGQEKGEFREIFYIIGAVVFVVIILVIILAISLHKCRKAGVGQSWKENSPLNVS
# [2] = biological target: human pancreatic trypsin (human, UniProt P07477 24-247); test: cell-based or functional assay
# [3] = biological target: human urokinase (human, UniProt P00749 156-431); test: cell-based or functional assay
# [4] = biological target: recombinant tissue plasminogen activator (human, UniProt P00750 36-562); test: cell-based or functional assay
# Chain of recombinant tissue plasminogen activator (P00750 36-562 limits assumed): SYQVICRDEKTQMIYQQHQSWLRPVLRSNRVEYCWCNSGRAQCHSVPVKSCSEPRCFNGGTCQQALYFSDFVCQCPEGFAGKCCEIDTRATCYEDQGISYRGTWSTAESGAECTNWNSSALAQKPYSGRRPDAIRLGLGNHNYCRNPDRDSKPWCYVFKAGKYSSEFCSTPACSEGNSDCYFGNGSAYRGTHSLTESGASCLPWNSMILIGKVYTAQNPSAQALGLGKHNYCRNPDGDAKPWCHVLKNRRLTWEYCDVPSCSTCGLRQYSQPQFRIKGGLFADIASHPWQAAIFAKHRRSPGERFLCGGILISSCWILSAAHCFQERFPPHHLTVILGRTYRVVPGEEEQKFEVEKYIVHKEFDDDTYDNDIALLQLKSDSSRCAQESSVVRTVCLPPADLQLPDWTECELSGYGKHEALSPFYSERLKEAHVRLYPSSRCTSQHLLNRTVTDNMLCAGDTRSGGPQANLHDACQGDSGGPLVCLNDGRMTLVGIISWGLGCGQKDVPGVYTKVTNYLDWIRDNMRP
# [5] = biological target: human Factor XIa (human, UniProt P03951 19-625); test: cell-based or functional assay
# [6] = biological target: T1, human Factor XIIa; test: cell-based or functional assay
# [7] = biological target: bovine pancreatic chymotrypsin (bovine, UniProt P00766 1-245); test: cell-based or functional assay
# [8] = biological target: human kallikrein (human, UniProt P03952 20-638); test: cell-based or functional assay
# Chain of human kallikrein (P03952 20-638 limits assumed): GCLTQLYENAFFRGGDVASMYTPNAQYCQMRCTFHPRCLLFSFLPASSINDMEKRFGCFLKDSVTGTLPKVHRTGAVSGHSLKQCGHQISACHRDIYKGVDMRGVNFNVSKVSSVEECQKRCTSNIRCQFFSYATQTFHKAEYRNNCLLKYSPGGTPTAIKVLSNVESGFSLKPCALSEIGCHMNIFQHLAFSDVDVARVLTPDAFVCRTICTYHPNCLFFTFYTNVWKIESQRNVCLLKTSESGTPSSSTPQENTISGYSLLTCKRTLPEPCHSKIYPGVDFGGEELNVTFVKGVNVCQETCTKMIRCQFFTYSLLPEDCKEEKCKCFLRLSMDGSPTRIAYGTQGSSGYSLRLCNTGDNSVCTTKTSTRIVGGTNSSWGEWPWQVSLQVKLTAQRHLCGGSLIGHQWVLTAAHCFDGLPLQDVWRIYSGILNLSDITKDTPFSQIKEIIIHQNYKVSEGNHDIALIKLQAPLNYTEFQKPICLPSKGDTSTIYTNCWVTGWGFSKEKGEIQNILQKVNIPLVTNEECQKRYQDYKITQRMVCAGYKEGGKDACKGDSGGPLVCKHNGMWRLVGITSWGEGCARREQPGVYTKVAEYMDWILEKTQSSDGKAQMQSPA
# [9] = biological target: human activated protein C (human, UniProt P04070 43-461); test: cell-based or functional assay
# [10] = biological target: human factor Xa (human, UniProt P00742 41-179; P00742 235-488); test: cell-based or functional assay
# Chain of human factor Xa (P00742 41-179 limits assumed, chain 1 of 2): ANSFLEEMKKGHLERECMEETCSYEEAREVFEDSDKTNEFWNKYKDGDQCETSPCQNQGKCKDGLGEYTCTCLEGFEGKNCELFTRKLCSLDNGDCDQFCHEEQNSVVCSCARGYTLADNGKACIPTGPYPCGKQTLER
# Chain of human factor Xa (P00742 235-488 limits assumed, chain 2 of 2): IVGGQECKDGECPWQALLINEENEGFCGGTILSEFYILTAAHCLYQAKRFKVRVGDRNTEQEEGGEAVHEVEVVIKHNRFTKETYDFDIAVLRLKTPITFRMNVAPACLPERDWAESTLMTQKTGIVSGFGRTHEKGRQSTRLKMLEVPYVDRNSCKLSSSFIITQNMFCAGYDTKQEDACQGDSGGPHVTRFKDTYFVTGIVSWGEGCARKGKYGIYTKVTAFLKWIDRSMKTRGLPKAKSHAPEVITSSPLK
# [11] = biological target: human plasmin (human, UniProt P00747 97-810); test: cell-based or functional assay
# Chain of human plasmin (P00747 97-810 limits assumed): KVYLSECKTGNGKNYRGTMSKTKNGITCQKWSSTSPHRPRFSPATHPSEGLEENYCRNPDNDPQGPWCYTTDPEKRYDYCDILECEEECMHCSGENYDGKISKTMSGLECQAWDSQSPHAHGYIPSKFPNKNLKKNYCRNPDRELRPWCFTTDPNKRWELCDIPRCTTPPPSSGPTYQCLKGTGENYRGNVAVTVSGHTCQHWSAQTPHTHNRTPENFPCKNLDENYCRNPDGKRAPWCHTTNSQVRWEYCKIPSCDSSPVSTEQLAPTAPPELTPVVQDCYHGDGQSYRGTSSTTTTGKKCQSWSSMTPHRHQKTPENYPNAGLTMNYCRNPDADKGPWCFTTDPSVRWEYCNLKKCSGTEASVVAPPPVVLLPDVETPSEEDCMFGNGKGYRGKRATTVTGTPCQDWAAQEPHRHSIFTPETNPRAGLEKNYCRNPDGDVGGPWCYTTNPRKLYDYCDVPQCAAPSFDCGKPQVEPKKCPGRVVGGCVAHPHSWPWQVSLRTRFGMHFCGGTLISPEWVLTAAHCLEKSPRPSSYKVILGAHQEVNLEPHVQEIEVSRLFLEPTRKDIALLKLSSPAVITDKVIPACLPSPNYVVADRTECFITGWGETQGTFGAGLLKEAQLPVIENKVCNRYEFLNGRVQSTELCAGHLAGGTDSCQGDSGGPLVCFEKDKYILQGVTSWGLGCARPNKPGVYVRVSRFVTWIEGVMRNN
# [12] = biological target: human alpha-thrombin (human, UniProt P00734 328-622); test: cell-based or functional assay
# [13] = biological target: T2, rFVIIa/rTF/PLV complex; test: rFVIIa/rTF/PLV amidolytic assay (S-2288) plus 2.5 nM EGR-FXa; apparent Ki*
binder,measurement,setting,value
B1,Ki,[1],59.2 nM
same,"% Control Velocity (amidolytic activity; 75 nM NAP, 750 pM enzyme)",[2],98%
same,"% Control Velocity (amidolytic activity; 75 nM NAP, 750 pM enzyme)",[3],103%
same,"% Control Velocity (amidolytic activity; 75 nM NAP, 750 pM enzyme)",[4],108%
same,"% Control Velocity (amidolytic activity; 75 nM NAP, 750 pM enzyme)",[5],96%
same,"% Control Velocity (amidolytic activity; 75 nM NAP, 750 pM enzyme)",[6],102%
same,"% Control Velocity (amidolytic activity; 75 nM NAP, 750 pM enzyme)",[7],96%
same,"% Control Velocity (amidolytic activity; 75 nM NAP, 750 pM enzyme)",[8],32%
same,"% Control Velocity (amidolytic activity; 75 nM NAP, 750 pM enzyme)",[9],103%
same,"% Control Velocity (amidolytic activity; 75 nM NAP, 750 pM enzyme)",[10],76%
same,"% Control Velocity (amidolytic activity; 75 nM NAP, 750 pM enzyme)",[11],100%
same,"% Control Velocity (amidolytic activity; 75 nM NAP, 750 pM enzyme)",[12],93%
same,Ki,[13],0.378 nM
